Test results from patent US20240084003A1 (SIMCERE ZAIMING PHARMACEUTICAL, published 2024).
Where two headings read alike, the source gives them in different places.

T1: murine CD22 protein (ACROBiosystems, SI2-M52Ha) (murine, UniProt P35329 22-708)
T1 construct: extracellular domain; also called murine CD22-ECD; murine CD22-ECD-His
T1 sequence (looked up): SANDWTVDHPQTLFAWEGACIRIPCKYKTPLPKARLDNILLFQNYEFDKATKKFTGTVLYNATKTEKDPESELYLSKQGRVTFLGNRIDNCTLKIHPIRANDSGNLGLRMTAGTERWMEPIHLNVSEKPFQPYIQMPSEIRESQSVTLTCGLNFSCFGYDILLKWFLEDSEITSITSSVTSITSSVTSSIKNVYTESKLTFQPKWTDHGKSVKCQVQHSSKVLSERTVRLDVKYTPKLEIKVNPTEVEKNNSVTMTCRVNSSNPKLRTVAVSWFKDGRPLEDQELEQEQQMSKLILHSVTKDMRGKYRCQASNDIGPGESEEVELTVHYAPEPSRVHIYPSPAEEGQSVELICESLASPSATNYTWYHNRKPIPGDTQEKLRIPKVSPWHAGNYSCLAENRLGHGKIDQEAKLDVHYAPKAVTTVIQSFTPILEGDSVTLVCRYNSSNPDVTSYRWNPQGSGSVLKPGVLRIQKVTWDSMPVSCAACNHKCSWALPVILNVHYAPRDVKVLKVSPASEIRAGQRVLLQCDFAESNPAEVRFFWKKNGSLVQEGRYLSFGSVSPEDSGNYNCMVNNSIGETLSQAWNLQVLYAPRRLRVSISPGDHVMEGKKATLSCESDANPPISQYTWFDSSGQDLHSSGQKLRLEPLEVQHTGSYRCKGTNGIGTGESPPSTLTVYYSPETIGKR

T2: human CD22, full length, on CHO-K1-human CD22 2C4 cells (human, UniProt P20273 20-847)
T2 construct: Full-length human CD22 (NCBI NP_001762.2) stably transfected into CHO-K1
T2 sequence: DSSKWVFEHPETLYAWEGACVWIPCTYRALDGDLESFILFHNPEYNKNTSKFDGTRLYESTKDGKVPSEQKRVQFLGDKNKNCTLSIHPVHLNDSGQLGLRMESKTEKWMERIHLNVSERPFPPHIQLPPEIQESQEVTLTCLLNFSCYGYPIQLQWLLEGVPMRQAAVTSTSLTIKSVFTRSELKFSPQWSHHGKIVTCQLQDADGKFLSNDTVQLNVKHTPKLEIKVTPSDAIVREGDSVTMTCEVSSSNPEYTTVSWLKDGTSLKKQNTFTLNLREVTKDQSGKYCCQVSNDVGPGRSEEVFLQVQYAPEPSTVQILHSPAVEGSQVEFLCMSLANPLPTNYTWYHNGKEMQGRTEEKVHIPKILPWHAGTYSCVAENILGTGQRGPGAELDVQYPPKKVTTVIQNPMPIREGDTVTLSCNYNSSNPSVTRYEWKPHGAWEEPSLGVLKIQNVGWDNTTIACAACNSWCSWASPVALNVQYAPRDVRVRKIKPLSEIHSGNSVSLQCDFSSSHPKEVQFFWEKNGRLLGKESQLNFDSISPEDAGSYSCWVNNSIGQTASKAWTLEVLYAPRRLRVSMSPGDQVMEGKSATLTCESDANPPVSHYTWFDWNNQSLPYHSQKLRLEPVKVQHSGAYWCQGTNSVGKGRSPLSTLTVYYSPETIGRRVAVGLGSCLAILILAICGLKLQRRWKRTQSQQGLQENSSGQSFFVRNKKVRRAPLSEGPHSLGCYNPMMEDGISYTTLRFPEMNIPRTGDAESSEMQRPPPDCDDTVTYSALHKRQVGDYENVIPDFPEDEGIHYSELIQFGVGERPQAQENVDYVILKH

T3: human CD22, endogenous on Raji cells (human, UniProt P20273 20-847)
T3 construct: whole, on cells; Endogenous protein of the Raji cell line
T3 sequence (looked up): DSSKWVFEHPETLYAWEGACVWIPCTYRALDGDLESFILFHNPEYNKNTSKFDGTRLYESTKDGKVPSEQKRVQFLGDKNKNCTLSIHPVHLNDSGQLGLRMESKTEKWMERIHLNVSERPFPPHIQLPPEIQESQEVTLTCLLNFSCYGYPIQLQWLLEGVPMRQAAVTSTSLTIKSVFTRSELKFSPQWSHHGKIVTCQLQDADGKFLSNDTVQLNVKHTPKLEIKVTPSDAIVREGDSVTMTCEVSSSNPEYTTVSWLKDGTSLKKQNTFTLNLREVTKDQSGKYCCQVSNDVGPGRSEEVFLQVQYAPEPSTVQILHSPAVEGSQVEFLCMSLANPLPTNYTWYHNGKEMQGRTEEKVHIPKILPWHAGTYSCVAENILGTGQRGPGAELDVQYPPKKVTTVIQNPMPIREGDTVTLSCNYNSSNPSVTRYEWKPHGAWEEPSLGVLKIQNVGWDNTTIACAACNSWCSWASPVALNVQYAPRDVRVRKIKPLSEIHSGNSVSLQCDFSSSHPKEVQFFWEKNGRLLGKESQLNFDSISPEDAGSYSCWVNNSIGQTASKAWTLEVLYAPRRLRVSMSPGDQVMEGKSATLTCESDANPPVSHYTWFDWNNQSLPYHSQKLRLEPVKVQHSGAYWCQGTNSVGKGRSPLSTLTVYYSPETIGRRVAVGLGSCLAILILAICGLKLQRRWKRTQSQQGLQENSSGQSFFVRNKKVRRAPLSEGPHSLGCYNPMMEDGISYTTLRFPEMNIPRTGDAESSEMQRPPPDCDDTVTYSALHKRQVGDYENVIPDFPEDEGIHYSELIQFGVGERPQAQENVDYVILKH


Key:
[1] = biological target: T1, murine CD22 protein (ACROBiosystems, …); test: ELISA, coated murine CD22, 0.001 nM Ab
Procedure, shortened: (§1)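 Direct ELISA: chimeric antibody binding to CD22 coated at 2 μg/mL, with a 37° C, 2 h antibody step and HRP/TMB detection.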

[2] = biological target: T1, murine CD22 protein (ACROBiosystems, …); test: ELISA, coated murine CD22, 100 nM Ab
Procedure, shortened: as §1

[3] = biological target: T1, murine CD22 protein (ACROBiosystems, …); test: ELISA, coated murine CD22, 0.00001 nM Ab
Procedure, shortened: as §1

[4] = biological target: T2, human CD22, full length, on …; test: FACS, CHO-K1-human CD22 2C4 cells
Excerpt: (§2) The required cells were scale-up cultured in a T-75 cell culture flask to the logarithmic growth phase. For the adherent cell CHO-K1, the medium was aspirated, the cells were washed 2 times with PBS buffer, and then digested with trypsin. After the digestion was terminated, the cells were washed 2 times with PBS buffer. For suspension cell Raji, the medium supernatant was directly centrifuged and discarded, and the cell pellet was washed 2 times with PBS. After counting the cells in the previous step, the cell pellet was resuspended with [PBS+2% (w/w) BSA] blocking solution to 2×10⁶ cells/ml, and added to a 96-well FACS reaction plate at 50 μl/well, and then the chimeric antibody test sample was added at 50 μl/well, and incubated on ice for 2 hours. The mixture was centrifuged and washed 3 times with PBS buffer, Alexa Flour 488-labeled secondary antibody (purchased from Invitrogen, catalog number: A-11013) was added at 50 μl/well, and incubated on ice for 1 hour. The obtained mixture was centrifuged and washed 5 times with PBS, and FACS (FACS Canto™, purchased from BD Company) was used for detection and result analysis. Data analysis was performed by software (CellQuest) to obtain the mean fluorescence density (MFI)of the cells. And then software (GraphPad Prism8) was used for analysis, data fitting, and EC50 value calculation. […] The same method was used to detect the binding of the chimeric antibodies to endogenous CD22-negative cell MoLT4 cells (purchased from ATCC, CRL-1582) and CHO-K1 cells.

[5] = biological target: T3, human CD22, endogenous on Raji cells; test: FACS, Raji cells
Excerpt: as §2

[6] = biological target: T1, murine CD22 protein (ACROBiosystems, …); test: ELISA, coated murine CD22, 0.01 nM Ab
Procedure, shortened: as §1

[7] = biological target: T1, murine CD22 protein (ACROBiosystems, …); test: ELISA, coated murine CD22, 0.1 nM Ab
Procedure, shortened: as §1

[8] = biological target: T1, murine CD22 protein (ACROBiosystems, …); test: ELISA, coated murine CD22, 0.0001 nM Ab
Procedure, shortened: as §1

[9] = biological target: T1, murine CD22 protein (ACROBiosystems, …); test: ELISA, coated murine CD22, 10 nM Ab
Procedure, shortened: as §1

[10] = biological target: T2, human CD22, full length, on …; test: FACS, CHO-K1-human CD22 2C4 cells; remark: listed apart in the source
Procedure, shortened: (§3)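 Raji cells and CHO-K1 cells expressing human CD22 were blocked in PBS + 2% BSA at 2×10⁶ cells/ml and incubated with chimeric antibody for 2 h on ice. Bound antibody was detected with an Alexa Fluor 488 secondary for 1 h on ice and read by flow cytometry as MFI. EC50 came from curve fitting.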

[11] = biological target: T3, human CD22, endogenous on Raji cells; test: FACS, Raji cells; remark: listed apart in the source
Procedure, shortened: as §3

Binder | OD450 [1] | OD450 [2] | OD450 [3] | EC50 [4] | Maximum mean fluorescence intensity [4] | EC50 [5] | Maximum mean fluorescence intensity [5] | OD450 [6] | OD450 [7] | OD450 [8] | OD450 [9] | EC50 [10] | Maximum mean fluorescence intensity [10] | EC50 [11] | Maximum mean fluorescence intensity [11]
F2.104.10 human-murine chimeric antibody (antibody, human IgG1, lambda, V domains shown, Chimeric, human IgG1 / lambda) VH: EVQLVESGGGFVKPGGSLKLSCAASGFTFSDYGMNWFRQAPEKGLEWVAYISRGSHTIYYADTVKGRFTISRDNAENTLFLQMTSLRSNDTAMYYCVRMAGYYAMDYWGQGTSLTVSS VL: QLVLTQSSSASFSLGASAKLTCTLSSQHSSYIIEWYQQQPLKPPKYVMEVKKDGSHSTGDGIPDRFSGSSSGADRYLSISNIQSEDEAIYICGVGDTIKEQFVYVFGGGTKVTVLG | 0.06 OD450 | 0.07 OD450 | 0.05 OD450 | 880 pM | 40600 MFI | 400 pM | 16300 MFI | 0.07 OD450 | 0.06 OD450 | 0.06 OD450 | 0.07 OD450 |  |  |  | 
HA22-hIgG1 (antibody, V domains shown) VH: EVQLVESGGGLVKPGGSLKLSCAASGFAFSIYDMSWVRQTPEKCLEWVAYISSGGGTTYYPDTVKGRFTISRDNAKNTLYLQMSSLKSEDTAMYYCARHSGYGTHWGVLFAYWGQGTLVTVSA VL: DIQMTQTTSSLSASLGDRVTISCRASQDISNYLNWYQQKPDGTVKLLIYYTSILHSGVPSRFSGSGSGTDYSLTISNLEQEDFATYFCQQGNTLPWTFGCGTKLEIKR | 0.05 OD450 | 0.1 OD450 | 0.06 OD450 | 1100 pM | 43400 MFI | 710 pM | 19700 MFI | 0.06 OD450 | 0.06 OD450 | 0.06 OD450 | 0.07 OD450 | 810 pM | 32700 MFI | 290 pM | 25000 MFI
F2.121.9 human-murine chimeric antibody (antibody, human IgG1, lambda, V domains shown, Chimeric, human IgG1 / lambda) VH: EVQLVESGGGLVKPGGSLKLSCAASGFTFSDYVMSWIRQTPEKRLEWVATISDAGSYTFYPDNLKGRFTISRDNAKNNLYLQMNHLTSEDTAFYYCAIIYFGNYGGYWGQGTLVTVSV VL: QAVVTQESALTTSPGGTVVLTCRSNTGAVTTSNYANWVQEKPDHLFTGLIGGTSNRAPGVPVRFSGSLIGDKAALTITGAQTEDDAMYFCALWYSTHWVFGGGTKLTVLG | 0.06 OD450 | 0.06 OD450 | 0.06 OD450 | 1090 pM | 39700 MFI | 860 pM | 18900 MFI | 0.05 OD450 | 0.05 OD450 | 0.06 OD450 | 0.06 OD450 |  |  |  | 
